Source: patent publication US20200181243A1
Like-named read-outs stand apart in the source and are kept apart here.

Legend:
[1] = biological target: Hemagglutinin (HA)
[2] = biological target: Hemagglutinin (HA); assay: Hemagglutinin (HA) binding ELISA potency; antibody in Formulation #3, t=0

B1: Ab 044 (antibody, V domains shown)
VH: QVQLLETGGGLVKPGQSLKLSCAASGFTFTSYAMHWVRQPPGKGLEWVAVVSYDGNYKYYADSVQGRFTISRDNSKNTLYLQMNSLRAEDTAVYYCAKDSRLRSLLYFEWLSQGYFNPWGQGTTLTVSS
VL: DIQMTQSPSSLSASVGDRVTITCRSSQSITFDYKNYLAWYQQKPGKAPKLLIYWGSYLESGVPSRFSGSGSGTDFTLTISSLQPEDFATYYCQQHYRTPPSFGQGTKVEIK
% Activity [1]: 97%
Average % Activity [1]: 110%
% Activity [2]: 123%
